Experimental data as given in EP4703474A1, “ANTI-LRRC15 ANTIBODY” (priority 2023, dated 2024).

What was measured:
[1] = system: HER2-positive breast carcinoma cell line SUM190PT; assay: In vivo antitumor effect, SUM190PT subcutaneous transplant model; settings: 0.4 mg/kg, tail vein, on Day 32, female SCID mice
Method: (§1) The antitumor effects of the antibody-drug conjugates were evaluated by using animal models in which cells of a human tumor cell line had been transplanted into immunodeficient mice, or cells of a mouse tumor cell line had been transplanted into immunocompetent mice. 4 to 6 Week-old SCID mice (CB17/Icr-Prkdc[scid]/CrlCrlj, Jackson Laboratory Japan, Inc.), NSG mice (NOD.Cg-Prkdcscid Il2rgtm1Wjl/SzJ, Jackson Laboratory Japan, Inc.), or B6J mice (C57BL/6J, Jackson Laboratory Japan, Inc.) were habituated for 3 days or more under SPF conditions before experimental use. The mice were fed with sterilized solid feed and given sterilized tap water. The major and minor diameters of the transplanted tumors were measured twice a week with an electronic digital caliper (Mitutoyo Corporation), and the estimated tumor volume was calculated using the following formula. Estimated tumor volume (mm^3) = 1/2 × major diameter (mm) × [minor diameter (mm)]^2 All antibody-drug conjugates were diluted with ABS and administered into the tail vein at doses shown in each Example. In addition, ABS (vehicle) or control hIgG-PBD prepared in Reference Example 4 was administered as the control group, in a similar manner. 5 to 6 Mice were used per group in the experiment. […]

[2] = system: Pancreatic carcinoma cell line BxPC-3 and human adipose tissue-derived mesenchymal stem cells; assay: In vivo antitumor effect, BxPC-3 co-transplanted with mesenchymal stem cells; settings: BxPC-3 and MSC at 1:3; 0.4 mg/kg, tail vein, on Day 27; female SCID mice
Method: as §1, with “experiment. To analyze the LRRC15 expression in mouse tumor models, immunohistochemical staining of LRRC15 was performed.” for “experiment.”

[3] = system: Gastric carcinoma cell line Caki-1; assay: In vivo antitumor effect, Caki-1 subcutaneous transplant model; settings: 0.4 mg/kg, tail vein, on Day 21, female SCID mice
Method: as §1, with “experiment. To analyze the LRRC15 expression in mouse tumor models, immunohistochemical staining of LRRC15 was performed.” for “experiment.”

B1: H02L01-V1-PBD (conjugate)
heavy: EVQLVESGGGLVQPGGSLRLSCAASGFTFRDYYMAWVRQAPGKGLEWVSSIGFDESRTYYADSVKGRFTISRDDSKNTLYLQMNSLRAEDTAVYYCARHGVSKYSGDNWFAYWGQGTLVTVSSASTKGPSVFPLAPSSKSTSGGTAALGCLVKDYFPEPVTVSWNSGALTSGVHTFPAVLQSSGLYSLSSVVTVPSSSLGTQTYICNVNHKPSNTKVDKKVEPKSCDKTHTCPPCPAPEAAGGPSVFLFPPKPKDTLMISRTPEVTCVVVDVSHEDPEVKFNWYVDGVEVHNAKTKPREEQYNSTYRVVSVLTVLHQDWLNGKEYKCKVSNKALAAPIEKTISKAKGQPREPQVYTLPPSREEMTKNQVSLTCLVKGFYPSDIAVEWESNGQPENNYKTTPPVLDSDGSFFLYSKLTVDKSRWQQGNVFSCSVMHEALHNHYTQKSLSLSPGK
light: DIQMTQSPSSLSASVGDRVTITCKSSQGLLYSGDQKNYLAWYQQKPGKAPKLLIYWASTRQSGVPSRFSGSGSGTDFTLTISSLQPEDFATYYCQQYYDPPYTFGQGTKVEIKRTVAAPSVFIFPPSDEQLKSGTASVVCLLNNFYPREAKVQWKVDNALQSGNSQESVTEQDSKDSTYSLSSTLTLSKADYEKHKVYACEVTHQGLSSPVTKSFNRGEC
antitumor effect (estimated tumor volume) [1]: antitumor activity higher than that of the vehicle and control hIgG-PBD
antitumor effect (estimated tumor volume) [2]: antitumor activity higher than that of the vehicle and control hIgG-PBD
antitumor effect (estimated tumor volume) [3]: antitumor activity higher than that of the vehicle and control hIgG-PBD
